Data taken from the supplement of paper PMC11316812.
± gives the standard deviation of the averaged measurements.

Legend:
MCF7 = test: percentage of EdU-negative (G0-arrested) nuclei per well, 72 h; higher = more G0 arrest; conditions: reference: sequence is the full UniProt precursor, the tested protein was the secreted form or ectodomain
hTERT-HMEC = test: as above; conditions: reference: sequence is the full UniProt precursor, the tested protein was the secreted form or ectodomain
[1] = protein concentration 0.0225 µM
[2] = protein concentration 0.02117 µM
[3] = protein concentration 0.2117 µM
[4] = protein concentration 0.0153175 µM
[5] = protein concentration 0.153175 µM
[6] = protein concentration 0.01025 µM
[7] = protein concentration 0.1025 µM
[8] = protein concentration 0.03125 µM
[9] = protein concentration 0.3125 µM
[10] = protein concentration 0.02778 µM
[11] = protein concentration 0.2778 µM
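Further: secreted proteins added to cultured cells, EdU pulse at the end, nuclei found by Hoechst imaging, EdU status from nuclear versus surrounding ring intensity ratio, PBS as neutral control.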

MSPHPTALLGLVLCLAQTIHTQEEDLPRPSISAEPGTVIPLGSHVTFVCRGPVGVQTFRLERDSRSTYNDTEDVSQASPSESEARFRIDSVREGNAGLYRCIYYKPPKWSEQSDYLELLVKESSGGPDSPDTEPGSSAGPTQRPSDNSHNEHAPASQGLKAEHLYILIGVSVVFLFCLLLLVLFCLHRQNQIKQGPPRSKDEEQKPQQRPDLAVDVLERTADKATVNGLPEKDRETDTSALAAGSSQEVTYAQLDHWALTQRTARAVSPQSTKPMAESITYAAVARH [Q6GTX8]
percentage of EdU-negative (MCF7; [1]): 23.2 ± 1.6%
percentage of EdU-negative (MCF7; protein concentration 0.225 µM): 24.29 ± 0.027%
percentage of EdU-negative (hTERT-HMEC; [1]): 5.38 ± 0.85%
percentage of EdU-negative (hTERT-HMEC; protein concentration 0.225 µM): 5.62 ± 0.45%

MSPLLRRLLLAALLQLAPAQAPVSQPDAPGHQRKVVSWIDVYTRATCQPREVVVPLTVELMGTVAKQLVPSCVTVQRCGGCCPDDGLECVPTGQHQVRMQILMIRYPSSQLGEMSLEEHSQCECRPKKKDSAVKPDRAATPHHRPQPRSVPGWDSAPGAPSPADITHPTPAPGPSAHAAPSTTSALTPGPAAAAADAAASSVAKGGA
percentage of EdU-negative (MCF7; [2]): 25 ± 0.51%
percentage of EdU-negative (MCF7; [3]): 26.88 ± 0.25%
percentage of EdU-negative (hTERT-HMEC; [2]): 4.57 ± 0.19%
percentage of EdU-negative (hTERT-HMEC; [3]): 6.4 ± 1.3%

MSPNFKLQCHFILIFLTALRGESRYLELREAADYDPFLLFSANLKRELAGEQPYRRALRCLDMLSLQGQFTFTADRPQLHCAAFFISEPEEFITIHYDQVSIDCQGGDFLKVFDGWILKGEKFPSSQDHPLPSAERYIDFCESGLSRRSIRSSQNVAMIFFRVHEPGNGFTLTIKTDPNLFPCNVISQTPNGKFTLVVPHQHRNCSFSIIYPVVIKISDLTLGHVNGLQLKKSSAGCEGIGDFVELLGGTGLDPSKMTPLADLCYPFHGPAQMKVGCDNTVVRMVSSGKHVNRVTFEYRQLEPYELENPNGNSIGEFCLSGL
percentage of EdU-negative (MCF7; [4]): 25.7 ± 1.4%
percentage of EdU-negative (MCF7; [5]): 28.3 ± 0.6%
percentage of EdU-negative (hTERT-HMEC; [4]): 5.2 ± 0.25%
percentage of EdU-negative (hTERT-HMEC; [5]): 6.58 ± 0.22%

MSPSPTALFCLGLCLGRVPAQSGPLPKPSLQALPSSLVPLEKPVTLRCQGPPGVDLYRLEKLSSSRYQDQAVLFIPAMKRSLAGRYRCSYQNGSLWSLPSDQLELVATGVFAKPSLSAQPGPAVSSGGDVTLQCQTRYGFDQFALYKEGDPAPYKNPERWYRASFPIITVTAAHSGTYRCYSFSSRDPYLWSAPSDPLELVVTGTSVTPSRLPTEPPSPVAEFSEATAELTVSFTNEVFTTETSRSITASPKESDSPAGPARQYYTKGNLVRICLGAVILIILAGFLAEDWHSRRKRLRHRGRAVQRPLPPLPPLPLTRKSNGGQDGGRQDVHSRGLCS [Q9HCN6]
percentage of EdU-negative (MCF7; [1]): 24.78 ± 0.15%
percentage of EdU-negative (MCF7; protein concentration 0.225 µM): 24.9 ± 1.1%
percentage of EdU-negative (hTERT-HMEC; [1]): 4.56 ± 0.87%
percentage of EdU-negative (hTERT-HMEC; protein concentration 0.225 µM): 5.35 ± 0.6%

MSRELAPLLLLLLSIHSALAMRICSFNVRSFGESKQEDKNAMDVIVKVIKRCDIILVMEIKDSNNRICPILMEKLNRNSRRGITYNYVISSRLGRNTYKEQYAFLYKEKLVSVKRSYHYHDYQDGDADVFSREPFVVWFQSPHTAVKDFVIIPLHTTPETSVKEIDELVEVYTDVKHRWKAENFIFMGDFNAGCSYVPKKAWKNIRLRTDPRFVWLIGDQEDTTVKKSTNCAYDRIVLRGQEIVSSVVPKSNSVFDFQKAYKLTEEEALDVSDHFPVEFKLQSSRAFTNSKKSVTLRKKTKSKRS
percentage of EdU-negative (MCF7; [6]): 28.5 ± 1.3%
percentage of EdU-negative (MCF7; [7]): 27 ± 2%
percentage of EdU-negative (hTERT-HMEC; [6]): 4.824 ± 0.022%
percentage of EdU-negative (hTERT-HMEC; [7]): 5.74 ± 0.076%

MSRGLQLLLLSCAYSLAPATPEVKVACSEDVDLPCTAPWDPQVPYTVSWVKLLEGGEERMETPQEDHLRGQHYHQKGQNGSFDAPNERPYSLKIRNTTSCNSGTYRCTLQDPDGQRNLSGKVILRVTGCPAQRKEETFKKYRAEIVLLLALVIFYLTLIIFTCKFARLQSIFPDFSKAGMERAFLPVTSPNKHLGLVTPHKTELV
percentage of EdU-negative (MCF7; [1]): 25.6 ± 5.2%
percentage of EdU-negative (MCF7; protein concentration 0.225 µM): 25.7 ± 2.3%
percentage of EdU-negative (hTERT-HMEC; [1]): 4.68 ± 0.067%
percentage of EdU-negative (hTERT-HMEC; protein concentration 0.225 µM): 8.57 ± 0.3%

MSRLPVLLLLQLLVRPGLQAPMTQTTPLKTSWVNCSNMIDEIITHLKQPPLPLLDFNNLNGEDQDILMENNLRRPNLEAFNRAVKSLQNASAIESILKNLLPCLPLATAAPTRHPIHIKDGDWNEFRRKLTFYLKTLENAQAQQTTLSLAIF
percentage of EdU-negative (MCF7; [8]): 27.8 ± 0.94%
percentage of EdU-negative (MCF7; [9]): 23.6 ± 1.8%
percentage of EdU-negative (hTERT-HMEC; [8]): 5.21 ± 0.57%
percentage of EdU-negative (hTERT-HMEC; [9]): 4.85 ± 0.58%

MSRPQLRRWRLVSSPPSGVPGLALLALLALLALRLAAGTDCPCPEPELCRPIRHHPDFEVFVFDVGQKTWKSYDWSQITTVATFGKYDSELMCYAHSKGARVVLKGDVSLKDIIDPAFRASWIAQKLNLAKTQYMDGINIDIEQEVNCLSPEYDALTALVKETTDSFHREIEGSQVTFDVAWSPKNIDRRCYNYTGIADACDFLFVMSYDEQSQIWSECIAAANAPYNQTLTGYNDYIKMSINPKKLVMGVPWYGYDYTCLNLSEDHVCTIAKVPFRGAPCSDAAGRQVPYKTIMKQINSSISGNLWDKDQRAPYYNYKDPAGHFHQVWYDNPQSISLKATYIQNYRLRGIGMWNANCLDYSGDAVAKQQTEEMWEVLKPKLLQR
percentage of EdU-negative (MCF7; [10]): 25.1 ± 3.2%
percentage of EdU-negative (MCF7; [11]): 24.6 ± 1.1%
percentage of EdU-negative (hTERT-HMEC; [10]): 5.6 ± 0.68%
percentage of EdU-negative (hTERT-HMEC; [11]): 6.64 ± 0.1%
